According to patent US20200317768A1 (published 2020):

How the values were obtained:
[1] = molecular target: T1, cynomolgus monkey FcγRIIIaS extracellular domain, His-tagged (cynomolgus monkey, UniProt Q8SPW2 21-206 at identity 1.00)); experiment: SPR (BIACORE), captured antibody, FcgR as analyte
T1 construct: also called cyno FcγRIIIaS; cynoFcγRIIIaS; not shown: C-terminal His-tag
T1 chain: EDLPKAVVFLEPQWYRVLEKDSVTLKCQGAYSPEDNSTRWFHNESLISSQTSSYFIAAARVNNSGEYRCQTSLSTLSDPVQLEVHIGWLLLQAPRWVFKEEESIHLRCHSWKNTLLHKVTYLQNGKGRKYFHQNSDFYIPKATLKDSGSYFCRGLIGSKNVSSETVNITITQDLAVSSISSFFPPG
Procedure: (§1) The kinetic analysis of interactions between these antibodies and FcγR was carried out using BIACORE® T200 or BIACORE® 4000 (GE Healthcare). HBS-EP+ (GE Healthcare) was used as the running buffer, and the measurement temperature was set to 25° C. A chip produced by immobilizing Protein A. Protein A/G or mouse anti-human IgG kappa light chain (BD Biosciences) onto a Series S Sensor Chip CM4 or CM5 (GE Healthcare) by the amine-coupling method was used. […] After the measurement, the antibody captured on the chip was washed off by allowing reaction with 10 mM glycine-HCl, pH1.5 and 25 mM NaOH so that the chip was regenerated and used repeatedly. The sensorgrams obtained as measurement results were analyzed by the 1:1 Langmuir binding model using the BIACORE® Evaluation Software to calculate the binding rate constant ka (L/mol/s) and dissociation rate constant kd (l/s), and the dissociation constant KD (mol/L) was calculated from these values. […] Regarding such interactions, KD values were calculated using the following 1:1 binding model described in BIACORE® T100 Software Handbook BR1006-48 Edition AE.

[2] = molecular target: T2, human FcγRIIaR extracellular domain, His-tagged (human, UniProt P12318 34-217); experiment: SPR (BIACORE), captured antibody, FcgR as analyte
T2 construct: also called human FcγRIIa (type R); FcgRIIaR; not shown: C-terminal His-tag
T2 chain: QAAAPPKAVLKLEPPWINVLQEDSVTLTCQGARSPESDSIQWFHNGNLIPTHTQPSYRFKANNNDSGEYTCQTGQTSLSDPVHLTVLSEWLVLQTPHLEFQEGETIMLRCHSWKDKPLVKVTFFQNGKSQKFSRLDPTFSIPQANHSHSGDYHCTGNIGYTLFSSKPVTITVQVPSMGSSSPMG
Procedure: as §1

[3] = molecular target: T3, cynomolgus monkey FcγRIIa2 extracellular domain, His-tagged (cynomolgus monkey); experiment: SPR (BIACORE), captured antibody, FcgR as analyte
T3 construct: also called cyno FcγRIIa2; cynoFcgRIIa2; not shown: C-terminal His-tag
T3 chain: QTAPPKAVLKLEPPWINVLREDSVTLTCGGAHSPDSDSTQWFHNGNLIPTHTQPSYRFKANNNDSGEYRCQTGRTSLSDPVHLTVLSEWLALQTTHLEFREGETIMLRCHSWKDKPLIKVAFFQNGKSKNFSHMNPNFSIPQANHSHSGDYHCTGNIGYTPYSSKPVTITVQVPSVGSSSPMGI
Procedure: as §1

[4] = molecular target: T4, cynomolgus monkey FcγRIIa3 extracellular domain, His-tagged (cynomolgus monkey); experiment: SPR (BIACORE), captured antibody, FcgR as analyte
T4 construct: also called cyno FcγRIIa3; cynoFcgRIIa3; not shown: C-terminal His-tag
T4 chain: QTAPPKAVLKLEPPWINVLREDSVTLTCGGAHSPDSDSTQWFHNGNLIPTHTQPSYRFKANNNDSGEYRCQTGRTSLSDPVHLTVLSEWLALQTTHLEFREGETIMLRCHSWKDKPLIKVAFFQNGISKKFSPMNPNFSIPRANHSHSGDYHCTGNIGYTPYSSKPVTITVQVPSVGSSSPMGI
Procedure: as §1

[5] = molecular target: T5, human FcγRIIb extracellular domain, His-tagged (human, UniProt P31994 43-217); experiment: SPR (BIACORE), captured antibody, FcgR as analyte
T5 construct: also called FcgRIIb (human); not shown: C-terminal His-tag
T5 sequence: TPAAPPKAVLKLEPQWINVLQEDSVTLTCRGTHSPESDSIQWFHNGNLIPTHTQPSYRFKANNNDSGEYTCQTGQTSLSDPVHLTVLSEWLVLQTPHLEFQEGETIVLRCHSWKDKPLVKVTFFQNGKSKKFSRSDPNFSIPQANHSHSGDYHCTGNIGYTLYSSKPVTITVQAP
Procedure: as §1

[6] = molecular target: T6, cynomolgus monkey FcγRIIa1 extracellular domain, His-tagged (cynomolgus monkey); experiment: SPR (BIACORE), captured antibody, FcgR as analyte
T6 construct: also called cyno FcγRIIa1; cynoFcgRIIa1; not shown: C-terminal His-tag
T6 chain: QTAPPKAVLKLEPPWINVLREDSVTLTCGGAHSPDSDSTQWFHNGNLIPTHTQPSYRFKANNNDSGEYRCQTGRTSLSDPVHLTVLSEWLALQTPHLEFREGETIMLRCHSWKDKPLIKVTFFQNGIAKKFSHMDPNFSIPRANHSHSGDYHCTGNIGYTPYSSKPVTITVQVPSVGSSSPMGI
Procedure: as §1

[7] = molecular target: T7, human FcγRIIIaV extracellular domain, His-tagged (human, UniProt P08637 17-208); experiment: SPR (BIACORE), captured antibody, FcgR as analyte
T7 construct: also called FcgRIIIaV; not shown: C-terminal His-tag
Procedure: as §1

[8] = molecular target: T8, human FcγRIIaH extracellular domain, His-tagged (human, UniProt P12318 34-217); experiment: SPR (BIACORE), captured antibody, FcgR as analyte
T8 construct: also called human FcγRIIa (type H); FcgRIIaH; not shown: C-terminal His-tag
T8 sequence: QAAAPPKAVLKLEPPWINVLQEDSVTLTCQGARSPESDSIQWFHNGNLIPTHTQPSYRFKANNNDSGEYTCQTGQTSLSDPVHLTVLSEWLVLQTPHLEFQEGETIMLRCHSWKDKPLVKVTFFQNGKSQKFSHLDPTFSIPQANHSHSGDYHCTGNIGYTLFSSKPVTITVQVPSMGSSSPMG
Procedure: as §1

[9] = molecular target: T9, cynomolgus monkey FcγRIIb extracellular domain, His-tagged (cynomolgus monkey); experiment: SPR (BIACORE), captured antibody, FcgR as analyte
T9 construct: also called cyno FcγRIIb; cynoFcγRIIb; not shown: C-terminal His-tag
T9 chain: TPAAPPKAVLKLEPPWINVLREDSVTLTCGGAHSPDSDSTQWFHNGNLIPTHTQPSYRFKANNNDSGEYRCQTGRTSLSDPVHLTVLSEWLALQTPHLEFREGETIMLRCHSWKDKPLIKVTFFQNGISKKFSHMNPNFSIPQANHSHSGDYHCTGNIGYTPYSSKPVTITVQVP
Procedure: as §1

[10] = molecular target: T10, human FcγRIIaH extracellular domain, C-terminal His-tag (human, UniProt P12318 34-217); experiment: SPR 25C; FcgR bound per captured antibody, relative to parent B3
T10 construct: also called human FcγRIIa (type H); FcgRIIaH
T10 sequence: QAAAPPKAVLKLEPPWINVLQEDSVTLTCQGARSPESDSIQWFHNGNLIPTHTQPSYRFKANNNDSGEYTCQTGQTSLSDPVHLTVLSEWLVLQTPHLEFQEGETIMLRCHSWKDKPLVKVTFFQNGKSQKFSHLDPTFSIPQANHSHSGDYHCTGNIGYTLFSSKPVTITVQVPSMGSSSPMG
Procedure: (§2) These Fc variants are referred to as B3 variants. B3 variants were expressed and the binding of protein-A purified antibodies to each FcγR (FcγRIIa type H. FcγRIIa type R, FcγRIIb, and FcγRIIIaF) was comprehensively evaluated as follows. Analysis of interaction between each altered antibody and the Fcγ receptor prepared as mentioned above was carried out using BIACORE® T100 (GE Healthcare), BIACORE® T200 (GE Healthcare), BIACORE® A100, or BIACORE® 4000. HBS-EP+(GE Healthcare) was used as the running buffer, and the measurement temperature was set to 25° C. Chips produced by immobilizing Protein A (Thermo Scientific), Protein A/G (Thermo Scientific), or Protein L (ACTIGEN or BioVision) by the amine coupling method to a Series S sensor Chip CM5 or CM4 (GE Healthcare) were used. After capturing of antibodies of interest onto these sensor chips, an Fcγ receptor diluted with the running buffer was allowed to interact, the amount bound to an antibody was measured. However, since the amount of Fcγ receptor bound depends on the amount of the captured antibodies, the amount of Fcγ receptor bound was divided by the amount of each antibody captured to obtain corrected values, and these values were compared. Furthermore, antibodies captured onto the chips were washed by 10 mM glycine-HCl pH1.5, and the chips were regenerated and used repeatedly. […] The value obtained by multiplying this value by 100 was used as an indicator of the relative FcγR-binding activity of each variant.

[11] = molecular target: T11, human FcγRIIaR extracellular domain, C-terminal His-tag (human, UniProt P12318 34-217); experiment: as above
T11 construct: also called human FcγRIIa (type R); FcgRIIaR
T11 chain: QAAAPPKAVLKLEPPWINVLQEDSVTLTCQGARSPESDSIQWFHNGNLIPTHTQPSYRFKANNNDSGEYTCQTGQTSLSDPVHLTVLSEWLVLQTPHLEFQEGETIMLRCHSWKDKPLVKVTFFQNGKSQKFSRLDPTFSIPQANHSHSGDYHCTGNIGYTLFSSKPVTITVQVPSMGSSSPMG
Procedure: as §2

T7 sequence (P08637 17-208 F176V): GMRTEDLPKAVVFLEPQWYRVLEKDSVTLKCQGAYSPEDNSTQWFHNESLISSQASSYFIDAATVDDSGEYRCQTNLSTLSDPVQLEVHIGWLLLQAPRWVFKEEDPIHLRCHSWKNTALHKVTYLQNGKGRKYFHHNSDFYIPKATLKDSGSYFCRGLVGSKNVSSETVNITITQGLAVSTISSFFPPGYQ

B1: M103205H795-MY449/M103202L889-SK1 (antibody, human IgG1, kappa)
heavy: QVTLKESGPVLVKPTETLTLTCTVSGIDLSHDDISWVRQAPGKGLEWVGIISYAGSTYYASWAKGRLTISKDTSKNQVVLTMTNMDPVDTATYYCARGVPAYSHGGDLWGQGTLVTVSSASTKGPSVFPLAPSSKSTSGGTAALGCLVKDYFPEPVTVSWNSGALTSGVHTFPAVLQSSGLYSLSSVVTVPSSSLGTQTYICNVNHKPSNTKVDKKVEPKSCDKTHTCPPCPALELLTGPSVFLFPPKPKDTLMISRTPEVTCVVVDVSDEDPEVKFNWYVDGVEVHNAKTKPREEQYNSTYRVVSVLTVLHQDWLNGKEYKCKVSNKALPKPIEKTISKAKGQPREPQVYTLPPSREEMTKNQVSLTCLVKGFYPSDIAVEWESNGQPENNYKTTPPVLDSDGSFFLYSKLTVDKSRWQQGNVFSCSVMHEALHNHYTQKSLSLSP
light: DIVMTQSPATLSLSPGERATLSCTSSQSVYHANWLSWFQQKPGQPPKLLIYWASTLAYGVPSRFSGSGSGTDFTLTISSLQPEDAATYYCAGGYGGGRYAFGQGTKVEIKRTVAAPSVFIFPPSDEQLKSGTASVVCLLNNFYPREAKVQWKVDNALQSGNSQESVTEQDSKDSTYSLSSTLTLSKADYEKHKVYACEVTHQGLSSPVTKSFNRGEC
notes: copies: 2 + 2
- Kd [1]: 1000 nM
- Kd [2]: 74 nM
- Kd [3]: 940 nM
- Kd [4]: 1500 nM
- Kd [5]: 290 nM
- Kd [6]: 870 nM
- Kd [7]: 3.7 µM
- Kd [8]: 93 nM
- Kd [9]: 230 nM

B2: GpH7-B3 variant A327N/GpL16-k0 (antibody, human IgG1, kappa)
heavy: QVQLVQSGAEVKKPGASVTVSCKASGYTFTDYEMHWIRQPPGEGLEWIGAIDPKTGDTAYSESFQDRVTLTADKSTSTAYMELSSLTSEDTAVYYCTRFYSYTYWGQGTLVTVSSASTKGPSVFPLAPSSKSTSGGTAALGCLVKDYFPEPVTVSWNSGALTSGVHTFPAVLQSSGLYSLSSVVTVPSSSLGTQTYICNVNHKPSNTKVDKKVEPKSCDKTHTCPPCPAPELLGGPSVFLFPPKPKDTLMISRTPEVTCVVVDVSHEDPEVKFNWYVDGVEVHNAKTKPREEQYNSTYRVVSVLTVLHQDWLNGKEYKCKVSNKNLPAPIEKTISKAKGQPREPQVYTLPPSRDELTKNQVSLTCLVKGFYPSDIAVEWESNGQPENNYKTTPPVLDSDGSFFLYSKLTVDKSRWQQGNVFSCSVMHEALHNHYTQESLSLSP
light: DIVMTQSPLSLPVTPGEPASISCQASESLVHSNRNTYLHWYLQKPGQSPQLLIYKVSNRFSGVPDRFSGSGSGTDFTLKISRVEAEDVGVYYCSQNTHVPPTFGQGTKVEIERTVAAPSVFIFPPSDEQLKSGTASVVCLLNNFYPREAKVQWKVDNALQSGNSQESVTEQDSKDSTYSLSSTLTLSKADYEKHKVYACEVTHQGLSSPVTKSFNRGEC
- Binding to human FcgRs (parent B3 = 100) [10]: 95 parent B3 = 100
- Binding to human FcgRs (parent B3 = 100) [11]: 48 parent B3 = 100

B3: GpH7-B3 variant P271E/GpL16-k0 (antibody, human IgG1, kappa)
heavy: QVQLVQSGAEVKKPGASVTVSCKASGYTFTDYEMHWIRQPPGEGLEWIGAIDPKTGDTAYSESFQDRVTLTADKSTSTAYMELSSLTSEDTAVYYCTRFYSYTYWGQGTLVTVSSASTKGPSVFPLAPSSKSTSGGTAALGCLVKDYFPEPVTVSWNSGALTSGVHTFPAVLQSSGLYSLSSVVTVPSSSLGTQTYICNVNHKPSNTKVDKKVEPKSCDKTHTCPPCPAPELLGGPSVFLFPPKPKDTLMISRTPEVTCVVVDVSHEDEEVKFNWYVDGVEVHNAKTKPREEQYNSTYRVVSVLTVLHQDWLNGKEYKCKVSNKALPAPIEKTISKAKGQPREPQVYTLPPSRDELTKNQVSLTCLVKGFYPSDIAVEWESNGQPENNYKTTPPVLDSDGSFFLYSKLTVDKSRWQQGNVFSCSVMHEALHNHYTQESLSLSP
light: DIVMTQSPLSLPVTPGEPASISCQASESLVHSNRNTYLHWYLQKPGQSPQLLIYKVSNRFSGVPDRFSGSGSGTDFTLKISRVEAEDVGVYYCSQNTHVPPTFGQGTKVEIERTVAAPSVFIFPPSDEQLKSGTASVVCLLNNFYPREAKVQWKVDNALQSGNSQESVTEQDSKDSTYSLSSTLTLSKADYEKHKVYACEVTHQGLSSPVTKSFNRGEC
- Binding to human FcgRs (parent B3 = 100) [10]: 90 parent B3 = 100
- Binding to human FcgRs (parent B3 = 100) [11]: 51 parent B3 = 100
